Measured values taken from publication PMC9708791.

Molecular target: PER2 (V5-Per2) (UniProt O15055)
Test: co-immunoprecipitation of V5-Per2 and HA-GSK3β
Details: reference: wild-type HA-GSK3β; sites S9

binding against the reference: lost
Substance: GSK3β (HA-tagged, Addgene plasmid) (from UniProt P49841) HA-GSK3β S9A
